B1: HMOX1 (parent)
chain: YHIYVALEEEIERNKESPVFAPVY
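Further: lentivirally expressed fusions sorted by FACS into six bins by GFP to DsRed ratio, PSI derived from sequencing read proportions per bin multiplied by bin number.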

Variants of: B1
Experiment: protein stability index of a GFP-peptide fusion (GPS, HEK-293T) (PSI 1-6); higher = more stable
Conditions: c terminus: a fixed tail appended
Variant YHIYVALEEEIERNKESPVFAPKY [V23K] has a protein stability index of 2.09. For YHIYVALEEEIERNKESPVFAPYY [V23Y], the protein stability index was 1.64. For YHIYVALEEEIERNKESPVFAPDY [V23D], the protein stability index was 2.69. In the case of YHIYVALEEEIERNKESPVFAPQY [V23Q], the protein stability index is reported as 1.99. In the case of YHIYVALEEEIERNKESPVFAPMY [V23M], the protein stability index is reported as 1.89. In the case of YHIYVALEEEIERNKESPVFAPWY [V23W], the protein stability index is reported as 2.65. With YHIYVALEEEIERNKESPVFAPRY [V23R] the protein stability index was 2.87. YHIYVALEEEIERNKESPVFAPIY [V23I] gave a protein stability index of 1.87. Variant YHIYVALEEEIERNKESPVFAPTY [V23T] has a protein stability index of 1.83. Work on YHIYVALEEEIERNKESPVFAPEY [V23E] yielded a protein stability index of 2.63. For YHIYVALEEEIERNKESPVFAPPY [V23P], the protein stability index was 2.69. For YHIYVALEEEIERNKESPVFAPNY [V23N], the protein stability index was 1.78. YHIYVALEEEIERNKESPVFAPFY [V23F] showed a protein stability index of 1.78. Variant YHIYVALEEEIERNKESPVFAPSY [V23S] has a protein stability index of 1.85. For YHIYVALEEEIERNKESPVFAPGY [V23G], the protein stability index was 2.1. For YHIYVALEEEIERNKESPVFAPHY [V23H], the protein stability index was 1.84. With YHIYVALEEEIERNKESPVFAPAY [V23A] the protein stability index was 2.27. For YHIYVALEEEIERNKESPVFAPCY [V23C], the protein stability index was 2.12. With YHIYVALEEEIERNKESPVFAPLY [V23L] the protein stability index was 1.77. YHIYVALEEEIERNKELPVFAPVY [S17L] showed a protein stability index of 2.19. With YHIYVALEEEIERNKENPVFAPVY [S17N] the protein stability index was 2.05. Work on YHIYVALEEEIERNKEGPVFAPVY [S17G] yielded a protein stability index of 2.29. YHIYVALEEEIERNKEKPVFAPVY [S17K] showed a protein stability index of 2.14. YHIYVALEEEIERNKETPVFAPVY [S17T] showed a protein stability index of 1.69. Work on YHIYVALEEEIERNKEFPVFAPVY [S17F] yielded a protein stability index of 1.88. Variant YHIYVALEEEIERNKEMPVFAPVY [S17M] has a protein stability index of 1.93. For YHIYVALEEEIERNKEYPVFAPVY [S17Y], the protein stability index was 1.26. For YHIYVALEEEIERNKERPVFAPVY [S17R], the protein stability index was 2.2. In the case of YHIYVALEEEIERNKECPVFAPVY [S17C], the protein stability index is reported as 1.86. With YHIYVALEEEIERNKEAPVFAPVY [S17A] the protein stability index was 2.27. For YHIYVALEEEIERNKEVPVFAPVY [S17V], the protein stability index was 1.65. Work on YHIYVALEEEIERNKEDPVFAPVY [S17D] yielded a protein stability index of 2.3. With YHIYVALEEEIERNKEPPVFAPVY [S17P] the protein stability index was 2.02. With YHIYVALEEEIERNKEIPVFAPVY [S17I] the protein stability index was 2.46. Variant YHIYVALEEEIERNKEHPVFAPVY [S17H] has a protein stability index of 1.83. YHIYVALEEEIERNKEEPVFAPVY [S17E] showed a protein stability index of 1.85. YHIYVALEEEIERNKEQPVFAPVY [S17Q] gave a protein stability index of 1.57. In the case of YHIYVALEEEIERNKEWPVFAPVY [S17W], the protein stability index is reported as 2.65. With YHIYVALEEEIERNKESPVCAPVY [F20C] the protein stability index was 3.24. YHIYVALEEEIERNKESPVKAPVY [F20K] showed a protein stability index of 2.27. YHIYVALEEEIERNKESPVIAPVY [F20I] showed a protein stability index of 2.25. YHIYVALEEEIERNKESPVSAPVY [F20S] showed a protein stability index of 2.78. Work on YHIYVALEEEIERNKESPVNAPVY [F20N] yielded a protein stability index of 2.78. For YHIYVALEEEIERNKESPVDAPVY [F20D], the protein stability index was 2.95. Variant YHIYVALEEEIERNKESPVVAPVY [F20V] has a protein stability index of 3.06. With YHIYVALEEEIERNKESPVAAPVY [F20A] the protein stability index was 2.41. YHIYVALEEEIERNKESPVQAPVY [F20Q] showed a protein stability index of 2.42. For YHIYVALEEEIERNKESPVMAPVY [F20M], the protein stability index was 2.81. YHIYVALEEEIERNKESPVTAPVY [F20T] showed a protein stability index of 2.57. With YHIYVALEEEIERNKESPVRAPVY [F20R] the protein stability index was 2.95. For YHIYVALEEEIERNKESPVEAPVY [F20E], the protein stability index was 2.52. For YHIYVALEEEIERNKESPVHAPVY [F20H], the protein stability index was 2.47. In the case of YHIYVALEEEIERNKESPVPAPVY [F20P], the protein stability index is reported as 2.82. With YHIYVALEEEIERNKESPVYAPVY [F20Y] the protein stability index was 2.19. For YHIYVALEEEIERNKESPVWAPVY [F20W], the protein stability index was 2.41. YHIYVALEEEIERNKESPVGAPVY [F20G] showed a protein stability index of 3.15. YHIYVALEEEIERNKESPVLAPVY [F20L] showed a protein stability index of 2.66. Variant YHIYVALEEEIERYKESPVFAPVY [N14Y] has a protein stability index of 1.45. YHIYVALEEEIERTKESPVFAPVY [N14T] showed a protein stability index of 2.81. In the case of YHIYVALEEEIERRKESPVFAPVY [N14R], the protein stability index is reported as 2.32. Work on YHIYVALEEEIERVKESPVFAPVY [N14V] yielded a protein stability index of 1.49. Variant YHIYVALEEEIERQKESPVFAPVY [N14Q] has a protein stability index of 2.62. YHIYVALEEEIERSKESPVFAPVY [N14S] showed a protein stability index of 2.54. Work on YHIYVALEEEIERNKESPVFEPVY [A21E] yielded a protein stability index of 2.41. Variant YHIYVALEEEIERNKESPVFFPVY [A21F] has a protein stability index of 2.21. Variant YHIYVALEEEIERNKESPVFWPVY [A21W] has a protein stability index of 1.7. With YHIYVALEEEIERNKESPVFGPVY [A21G] the protein stability index was 2.43. YHIYVALEEEIERNKESPVFLPVY [A21L] gave a protein stability index of 1.58. For YHIYVALEEEIERNKESPVFKPVY [A21K], the protein stability index was 2.8. With YHIYVALEEEIERNKESPVFHPVY [A21H] the protein stability index was 2.06. For YHIYVALEEEIERNKESPVFPPVY [A21P], the protein stability index was 2.06. For YHIYVALEEEIERNKESPVFVPVY [A21V], the protein stability index was 1.76. For YHIYVALEEEIERNKESPVFIPVY [A21I], the protein stability index was 1.87. For YHIYVALEEEIERNKESPVFYPVY [A21Y], the protein stability index was 1.49. YHIYVALEEEIERNKESPVFCPVY [A21C] gave a protein stability index of 1.72. Work on YHIYVALEEEIERNKESPVFQPVY [A21Q] yielded a protein stability index of 2.41. Variant YHIYVALEEEIERNKESPVFRPVY [A21R] has a protein stability index of 2.2. Work on YHIYVALEEEIERNKESPVFMPVY [A21M] yielded a protein stability index of 1.99. For YHIYVALEEEIERNKESPVFNPVY [A21N], the protein stability index was 2.31. YHIYVALEEEIERNKESPVFTPVY [A21T] gave a protein stability index of 2. YHIYVALEEEIERNKESPVFDPVY [A21D] gave a protein stability index of 2.91. YHIYVALEEEIERNKESPVFSPVY [A21S] showed a protein stability index of 2.02. With YHIYVALEEEIERNKESPVFADVY [P22D] the protein stability index was 1.8. In the case of YHIYVALEEEIERNKESPVFAWVY [P22W], the protein stability index is reported as 1.87. YHIYVALEEEIERNKESPVFAHVY [P22H] gave a protein stability index of 1.98. For YHIYVALEEEIERNKESPVFAMVY [P22M], the protein stability index was 3.18. Work on YHIYVALEEEIERNKESPVFARVY [P22R] yielded a protein stability index of 2.06. Work on YHIYVALEEEIERNKESPVFAQVY [P22Q] yielded a protein stability index of 1.98. Work on YHIYVALEEEIERNKESPVFAAVY [P22A] yielded a protein stability index of 2.12. For YHIYVALEEEIERNKESPVFAKVY [P22K], the protein stability index was 2.14. For YHIYVALEEEIERNKESPVFACVY [P22C], the protein stability index was 1.54. With YHIYVALEEEIERNKESPVFAIVY [P22I] the protein stability index was 2.61. YHIYVALEEEIERNKESPVFAFVY [P22F] gave a protein stability index of 2.91. YHIYVALEEEIERNKESPVFASVY [P22S] gave a protein stability index of 1.55.
